According to patent US20200102347A1 (AUCTUS BIOLOGIES, published 2020):
No end group written: not given here. *: point of attachment. RhodamineB = CCN(CC)c1ccc2c(-c3ccccc3C(=O)*)c3ccc(=[N+](CC)CC)cc-3oc2c1

T1: RPtag(small) l14a (Thermoanaerobacter tengcongensis, N-terminal rhodamine)
T1 peptide: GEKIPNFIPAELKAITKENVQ

T2: RPtag(small) l14k (Thermoanaerobacter tengcongensis, N-terminal rhodamine)
T2 construct: also called L14K RPtag(small)
T2 peptide: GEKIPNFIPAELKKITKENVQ

T3: MaturePDGF-β_NterminalPeptide
T3 construct: an N-terminal G was added and is left out of the numbering; also called PDGF-β peptide
T3 peptide: RhodamineB-GSLGSLTIAEPAMIAE

T4: RPtag(small) Nd2, Cd4 (Thermoanaerobacter tengcongensis)
T4 peptide: RhodamineB-KIPNFIPAELKLITK

B1: Nterminally_tagged_RPtag(small)Nd8,Cd4(fast)_tagRFP (other)
chain: MGSSPAELKLITKGSENLYFQGGSMVSKGEELIKENMHMKLYMEGTVNNHHFKCTSEGEGKPYEGTQTMRIKVVEGGPLPFAFDILATSFMYGSRTFINHTQGIPDFFKQSFPEGFTWERVTTYEDGGVLTATQDTSLQDGCLIYNVKIRGVNFPSNGPVMQKKTLGWEANTEMLYPADGGLEGRSDMALKLVGGGHLICNFKTTYRSKKPAKNLKMPGVYYVDHRLERIKEADKETYVEQHEVAVARYCDLPSKLGHKLNGSSGHHHHHHHH
notes: also called tagRFP containing an N-terminal RPtag (small) Nd8Cd4 tag
B2: NativeRPtag(large)_with_Tags_and_Cys (other)
chain: MGSSCHHHHHHSQDPNSSSMKEGKTIGLVISTLNNPFFVTLKNGAEEKAKELGYKIIVEDSQNDSSKELSNVEDLIQQKVDVLLINPVDSDAVVTAIKEANSKNIPVITIDRSANGGDVVSHIASDNVKGGEMAAEFIAKALKGKGNVVELEGIPGASAARDRGKGFDEAIAKYPDIKIVAKQAADFDRSKGLSVMENILQAQPKIDAVFAQNDEMALGAIKAIEAANRQGIIVVGFDGTEDALKAIKEGKMAATIAQQPALMGSLGVEMADKYLK
notes: Unlabeled in anisotropy assays; coupled through the engineered N-terminal Cys to SulfoLink agarose or maleimide plates in column, pull-down and ELISA assays
B3: native RPtag(small) (peptide)
peptide: RhodamineB-GEKIPNFIPAELKLITKENVQ
notes: Synthetic peptide
B4: RPtag(small) p5a (peptide)
peptide: RhodamineB-GEKIANFIPAELKLITKENVQ
B5: RPtag(small) Nd2, p5a, e18a (peptide)
peptide: RhodamineB-KIANFIPAELKLITKANVQ
modifications: also: also used unlabeled as competitor
notes: Rhodamine labeled in the Kd assays; also called RPtag(small) (tight)
B6: RP-Tag Small (Sequence 3: SEQ ID NO:13 with a glycine serine tail) (peptide)
peptide: RhodamineB-GEKIPNFIPAELKLITKENVQGS
modifications: also: N-terminal label: Rhodamine B / Rhodamine 6B
notes: also called RP-small peptide

Key:
[1] = biological target: B2; experiment: immobilized RPtag(large) column; bound in 3 M NaCl, eluted with 3 M imidazole
Method: Briefly, columns, as described above, were first equilibrated with 10 mL 100 mM Tris pH 8.0, 3 M NaCl, 0.005% Tween20. […] The column was then washed with 10 mL of the same buffer. Finally, bound target molecules were eluted with 10 mL of 100 mM Tris pH 8.0, 3 M imidazole, 0.005% Tween20.

RPtag(small) l14a = biological target: T1, RPtag(small) l14a; experiment: fluorescence anisotropy; 1 nM rhodamine RPtag small peptide, unlabeled RPtag large titrated, 1 h; 50 mM Tris pH 8.0, 0.005% Tween20; bar of Ka = 1/Kd
Method: (§1) Resultant curves were fit with the equation f=y0+(ymax−y0)*(Ptot+x+Kd−sqrt((Ptot+x+Kd)\hat{ }2−4*Ptot*x))/(2*Ptot), where y0 is the baseline anisotropy, ymax is the maximum anisotropy, Ptot is the fixed concentration of labeled peptide used, x is the variable concentration of protein used, and Kd is the measured Kd. […] Buffer was 50 mM Tris pH 8.0, 0.005% tween20.

RPtag(small) l14k = biological target: T2, RPtag(small) l14k; experiment: as above
Method: as §1

native RPtag(small) [2] = biological target: B3; experiment: fluorescence anisotropy, 1 nM rhodamine peptide
Method: (§2) Kd's were calculated according to the equation f=y0+(ymax−y0)*(Ptot+x+Kd−sqrt((Ptot+x+Kd)\hat{ }2−4*Ptot*x))/(2*Ptot), where y0 is the baseline anisotropy, ymax is the maximum anisotropy, Ptot is the fixed concentration of labeled peptide used, x is the variable concentration of protein used, and Kd is the measured Kd.

native RPtag(small) [3] = biological target: B3; experiment: fluorescence anisotropy; 1 nM rhodamine native RPtag (small), RPtag (large) titrated
Method: as §2

native RPtag(small) [4] = biological target: B3; experiment: fluorescence anisotropy after a 15 min 121 C autoclave cycle of RP-tag (large); RP-tag (large) autoclaved 15 min at 121 C before the measurement
[5] = biological target: T3, MaturePDGF-β_NterminalPeptide; experiment: fluorescence anisotropy, 20 nM rhodamine PDGF-β N-terminal peptide
Method: (§3) After the incubation, fluorescence anisotropy was measured, and the resultant curves were fit with the equation f=y0+(ymax−y0)*(Ptot+x+Kd−sqrt((Ptot+x+Kd)\hat{ }2−4*Ptot*x))/(2*Ptot), where y0 is the baseline anisotropy, ymax is the maximum anisotropy, Ptot is the fixed concentration of labeled peptide used, x is the variable concentration of protein used, and Kd is the measured Kd. […] Buffer was 50 mM Tris pH 8.0, 0.005% Tween20.

native RPtag(small) [6] = biological target: B3; experiment: fluorescence anisotropy
Method: as §2

[7] = biological target: B6; experiment: fluorescence anisotropy, 50 nM Rhodamine B RP-Tag Small
Method: (§4) Anisotropy was then measured, and a Kd calculated by fitting the data to the equation f=y₀+(yₘₐₓ−y₀)*(Pₜₒₜ+x+Kd−sqrt((Pₜₒₜ+x+Kd)\hat{ }2-4*Pₜₒₜ*x))/(2*Pₜₒₜ), where y₀ is the baseline anisotropy, yₘₐₓ is the maximum anisotropy, Pₜₒₜ is the fixed concentration of labeled peptide used, x is the variable concentration of protein used, and Kd is the measured Kd.

RPtag(small) Nd2, Cd4 = biological target: T4, RPtag(small) Nd2, Cd4; experiment: fluorescence anisotropy; 2 nM rhodamine Nd2Cd4, unlabeled RPtag large variant titrated; bar of Ka = 1/Kd, right axis
Method: as §3

[8] = biological target: B6; experiment: fluorescence anisotropy; 50 nM N-terminal Rhodamine B RP-Tag Small, RP-Tag Large titrated; 50 mM Tris pH 8.0, 150 mM NaCl, 10 mM 2-mercaptoethanol, 0.005% Tween 20
Method: as §4

[9] = biological target: B2; experiment: fluorescence anisotropy; BME (10%)
[10] = biological target: B2; experiment: calculated from koff and Kd; 50 mM Tris pH 8.0, 0.005% Tween 20, no additive
Bovine Serum Albumin [11] = biological target: T5, Bovine Serum Albumin (bovine, UniProt P02769 25-607); experiment: fluorescence anisotropy; 1 nM rhodamine native RPtag (small), BSA titrated
T5 construct: also called BSA
Method: as §2

[12] = biological target: B2; experiment: fluorescence anisotropy; MnSO4 (10 mM)
[13] = biological target: B2; experiment: calculated from koff and Kd; no additive; calculated in the text from koff and Kd
[14] = biological target: B2; experiment: fluorescence anisotropy; NiCl2 (100 mM)
[15] = biological target: B2; experiment: fluorescence anisotropy, chase with 0.1 mM unlabeled native RPtag small, first order fit; no additive; first order fit of the dissociation traces (n=15)
From the text: Data processing was done as in panel a, except the red fits were to the single exponential decay equation y=y0+A*exp(−b*t).
Panel e is a graph of the initial rates of the traces represented in d. […] Data are mean±SE (n=3).

[16] = biological target: B2; experiment: fluorescence anisotropy; PG (50%)
[17] = biological target: B2; experiment: fluorescence anisotropy; No Additive
[18] = biological target: B2; experiment: fluorescence anisotropy; KCl (3M)
[19] = biological target: B2; experiment: fluorescence anisotropy; DMSO (20%)
[20] = biological target: B2; experiment: fluorescence anisotropy; MeOH (20%)
[21] = biological target: B2; experiment: fluorescence anisotropy; acetone (20%)
[22] = biological target: B2; experiment: fluorescence anisotropy; NaCl (3M)
[23] = biological target: B2; experiment: fluorescence anisotropy; TritonX-100 (2%)
[24] = biological target: B2; experiment: fluorescence anisotropy; CaCl2 (3M)
[25] = biological target: B2; experiment: fluorescence anisotropy; ribose (3M)
[26] = biological target: B2; experiment: fluorescence anisotropy, competitor chase; 50 mM Tris pH 8.0, 0.005% Tween 20, no additive
[27] = biological target: B2; experiment: fluorescence anisotropy, association kinetics
[28] = biological target: B2; experiment: fluorescence anisotropy; DTT (100 mM)
[29] = biological target: B2; experiment: fluorescence anisotropy; MgCl2 (3M)
[30] = biological target: B2; experiment: fluorescence anisotropy; glycerol (20%)
[31] = biological target: B2; experiment: fluorescence anisotropy; Tween20 (2%)
[32] = biological target: B2; experiment: fluorescence anisotropy; EtOH (20%)
[33] = biological target: B2; experiment: fluorescence anisotropy; NH4SO4 (3M)
[34] = biological target: B2; experiment: fluorescence anisotropy; 50 mM Tris pH 8.0, 0.005% Tween 20, no additive
[35] = biological target: B2; experiment: fluorescence anisotropy; sorbitol (3M)
[36] = biological target: B2; experiment: fluorescence anisotropy, competitor chase
[37] = biological target: B2; experiment: fluorescence anisotropy
[38] = biological target: B2; experiment: fluorescence anisotropy kinetics
[39] = biological target: B2; experiment: calculated from koff and Kd
[40] = biological target: B2; experiment: competition fluorescence anisotropy; 1 µM RPtag large and 1 µM rhodamine PDGF-β N-terminal peptide (the displaced ligand), unlabeled Nd2,p5a,e18a titrated, 1 h; 50 mM Tris pH 8.0, 0.005% Tween20
Method: The curves were fit with the equation f=y0+(ymax−y0)*(Ptot+x+Kd−sqrt((Ptot+x+Kd)\hat{ }2−4*Ptot*x))/(2*Ptot), where y0 is the baseline anisotropy, ymax is the maximum anisotropy, Ptot is the fixed concentration of labeled peptide used, x is the variable concentration of protein used, and Kd is the measured Kd. […] The curves were fit empirically to a 4 parameter logistic regression. In both cases, the buffer was 50 mM Tris pH 8.0, 0.005% Tween20. Curves were fit in 4 independent trials each, and the data was averaged for display. Points are mean±SEM (n=3).

[41] = biological target: B2; experiment: fluorescence anisotropy; No Additive; No Additive; 100 mM Tris pH 8.0, 0.005% Tween 20 (Table 3)
Bovine Serum Albumin [42] = biological target: T5, Bovine Serum Albumin; experiment: fluorescence anisotropy; 50 nM N-terminal Rhodamine B RP-Tag Small, BSA titrated
Method: as §4

T5 sequence (P02769 25-607 limits assumed): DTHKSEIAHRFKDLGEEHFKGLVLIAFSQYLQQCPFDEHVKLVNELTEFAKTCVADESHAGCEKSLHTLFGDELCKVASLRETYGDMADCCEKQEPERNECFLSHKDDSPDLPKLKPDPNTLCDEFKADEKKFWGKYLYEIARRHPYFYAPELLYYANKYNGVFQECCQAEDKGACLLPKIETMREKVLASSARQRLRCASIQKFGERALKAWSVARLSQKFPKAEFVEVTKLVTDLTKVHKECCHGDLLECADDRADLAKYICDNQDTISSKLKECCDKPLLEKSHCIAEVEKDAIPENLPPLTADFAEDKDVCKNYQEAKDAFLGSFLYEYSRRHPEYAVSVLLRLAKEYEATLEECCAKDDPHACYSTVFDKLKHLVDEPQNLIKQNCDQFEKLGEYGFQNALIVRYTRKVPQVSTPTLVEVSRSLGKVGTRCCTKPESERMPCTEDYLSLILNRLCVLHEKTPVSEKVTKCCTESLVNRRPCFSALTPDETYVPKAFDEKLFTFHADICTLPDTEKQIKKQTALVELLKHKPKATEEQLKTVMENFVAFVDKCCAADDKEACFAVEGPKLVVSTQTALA

| Kd [9] | kon [10] | Kd [12] | Kd [14] | Kd [16] | Kd [18] | Kd [19] | Kd [20] | Kd [21] | Kd [22] | Kd [23] | Kd [24] | Kd [25] | koff [26] | Keq (S-S*) [27] | kf (S to S*) [27] | kr (S* to S) [27] | Kd [28] | Kd [29] | Kd [30] | Binder | also measured |
| --- | --- | --- | --- | --- | --- | --- | --- | --- | --- | --- | --- | --- | --- | --- | --- | --- | --- | --- | --- | --- | --- |
| – | – | – | – | – | – | – | – | – | – | – | – | – | – | – | – | – | – | – | – | B1 | binding result [1]: binds |
| – | – | – | – | – | – | – | – | – | – | – | – | – | – | – | – | – | – | – | – | B2 | binding result (RPtag(small) l14a): binds; binding result (RPtag(small) l14k): binds; Kd (native RPtag(small) [2]): 0.2 nM; EC50 (read off the curve) (native RPtag(small) [3]): ~0.8 nM; Kd (native RPtag(small) [4]): 53 nM; Kd [5]: 7300 nM; fold better Kd than anti-6xHis/6xHis (native RPtag(small) [6]): ~30 fold; fold selectivity over BSA (native RPtag(small) [6]): > 50000 fold; Kd [7]: 8 nM; binding result (RPtag(small) Nd2, Cd4): binds; EC50 (read off the curve) [8]: ~30 nM |
| 5.3 nM | 717000 M⁻¹ s⁻¹ | 160 nM | 3.2 nM | 19 nM | < 0.001 nM | 0.17 nM | 0.11 nM | 0.15 nM | 0.0027 nM | 0.64 nM | 330 nM | 0.023 nM | 0.000152 s⁻¹ | 1.6 | 0.092 min⁻¹ | 0.056 min⁻¹ | 0.51 nM | 124 nM | 0.034 nM | B3 | binding result (Bovine Serum Albumin [11]): no binding; kon [13]: ~767000 M⁻¹ s⁻¹; koff [15]: 0.0002 s⁻¹; Kd [17]: 0.21 nM; Kd [31]: 0.49 nM; Kd [32]: 0.17 nM; Kd [33]: 1.5 nM; Kd [34]: 0.21 nM; Kd [35]: 2.5 nM |
| – | – | – | – | – | – | – | – | – | – | – | – | – | – | 1.8 | 0.093 min⁻¹ | 0.052 min⁻¹ | – | – | – | B4 | koff [36]: 0.0004 s⁻¹; Kd [37]: 0.23 nM; fold increase of kon and koff against native [38]: ~7 fold; kon [39]: 1.83e+06 M⁻¹ s⁻¹ |
| 6.7 nM | 4.67e+06 M⁻¹ s⁻¹ | 22 nM | 2.2 nM | 49 nM | 0.011 nM | 0.023 nM | 0.056 nM | 0.019 nM | < 0.001 nM | 0.046 nM | 150 nM | < 0.001 nM | 0.000217 s⁻¹ | – | – | – | 0.073 nM | 350 nM | < 0.001 nM | B5 | IC50 (read off the curve) [40]: ~500 nM; Kd [41]: 0.037 nM; Kd [31]: 4.7 nM; Kd [32]: 0.1 nM; Kd [33]: 44 nM; Kd [34]: 0.047 nM; Kd [35]: < 0.001 nM |
| – | – | – | – | – | – | – | – | – | – | – | – | – | – | – | – | – | – | – | – | B6 | binding result (Bovine Serum Albumin [42]): no binding |
